{"source": "patent US20240181074A1", "about": "“PEGYLATED T CELL ENGAGER WITH DUAL SPECIFICITIES TO CD3 AND CD19” (Shenzhen Enduring Biotech, Ltd., priority 2021, published 2024)", "molecules": {"B1": {"name": "MEDI-551: anti-CD19 monoclonal antibody currently under clinical trial for treating MS (antibody, chains of the INN, looked up, V domains shown)", "VH": "EVQLVESGGGLVQPGGSLRLSCAASGFTFSSSWMNWVRQAPGKGLEWVGRIYPGDGDTNYNVKFKGRFTISRDDSKNSLYLQMNSLKTEDTAVYYCARSGFITTVRDFDYWGQGTLVTVSS", "VL": "EIVLTQSPDFQSVTPKEKVTITCRASESVDTFGISFMNWFQQKPDQSPKLLIHEASNQGSGVPSRFSGSGSGTDFTLTINSLEAEDAATYYCQQSKEVPFTFGGGTKVEIK"}}, "key": {"CD19^+ B cells": {"system": "CD19^+ B cells", "test": "Spleen B cells in the EAE experiment (flow cytometry)", "format": "in vivo, mice", "details": "day 15, MEDI-551 treated group", "from_the_text": "To better illustrate the mechanism of JY108 in ameliorating EAE symptoms, the spleen B cells in the EAE experiment were examined on day 15, using the same method described in Example 9."}, "EAE model": {"system": "EAE model", "details": "cited from earlier work"}, "Breg cells": {"system": "Breg cells", "test": "Breg cells in spleen of EAE animals (PE-anti-CD19 / FITC-B10 flow cytometry)", "format": "in vivo, mice", "from_the_text": "The seemed contradictory results prompted us to see what happened to other related immune cells after JY108 treatment. Using the method described in Example 5, the spleen cells derived from the animals in the EAE experiment were double stained with PE-anti-CD19 and FITC-B10 (a marker for Breg) and counted via flowcytometry."}, "EAE model mice": {"system": "EAE model mice", "test": "EAE model, head-to-head comparison of JY108 to MEDI-551 (Example 9)", "format": "in vivo", "description": "MEDI-551 (Inebilizumab) is an anti-CD19 monoclonal antibody currently under clinical trial for treating MS. […] For head-to-head comparison, EAE model in this experiment were constructed in the same way as described in Example 8 and MEDI-551 treated group (a single i.v. injection of 250 μg/animal) was included in the experiment. On Day 12 after generation of the EAE model, the male animals were randomly grouped into 4 groups (n=7): MEDI-551 treated group, model group (control), two groups treated with JY108 at 60 μg/animal and at 80 μg/animal with 5 doses in total (Day 14, Day 15, Day 17, Day 19 and Day 21). The clinical scores were recorded for each animal on daily basis (except Day 18). Female mice were grouped similarly (n=7) after day 11 of EAE induction and treated with JY108 (30, 50, 75 μg/animal) and MEDI551 (250 μg/animal)."}, "MOG specific B cells": {"system": "MOG specific B cells", "test": "ELISPOT of residual MOG specific B cells in spinal cord", "format": "in vivo, mice", "description": "Since MOG specific B cells are the major source of autoantibodies for CNS myelination damage, ELISPOT was performed by following the protocol provided by the vendor's manual to compare the residual MOG specific B cells in the spinal cord of the tested animals."}}}
{"molecule": "B1", "values": [{"measurement": "CD19^+ B cells in spleen", "setting": "CD19^+ B cells", "result": "almost completely eliminated"}, {"measurement": "EAE symptoms of male mice", "setting": "EAE model; administered on day 7 after EAE induction (Chen 2014)", "result": "able to delay the EAE symptoms"}, {"measurement": "efficacy in EAE model versus anti-CD20 antibody", "setting": "EAE model; pre-clinical results", "result": "more effective than marketed monoclonal anti-CD20 antibody"}, {"measurement": "effect on Breg cells", "setting": "Breg cells", "result": "little effect"}, {"measurement": "EAE symptoms (clinical score)", "setting": "EAE model mice; female mice, 250 μg/animal", "result": "not effective"}, {"measurement": "EAE symptoms (clinical score)", "setting": "EAE model mice; male mice, single i.v. 250 μg/animal on day 14", "result": "did not show any therapeutic effect"}, {"measurement": "MOG specific B cells in the spinal cord", "setting": "MOG specific B cells", "result": "depleted MOG specific B cells effectively"}]}
